{
  "source": "patent US10688131B2",
  "about": "“Peptides and scaffolds for use in immunotherapy against head and neck squamous cell carcinoma and other cancers” (Immatics Biotechnologies GmbH, priority 2016, dated 2020)",
  "data": [
    {"target": "HLA-A*02:01 (Homo sapiens, UniProt P04439, D140Y/D185E/D98H/E176V/E277Q/G131W/G231S/I119V/I121R/I166T/I218V/L300P/L318F/N151K/N90K/P208A/P217A/Q86G/Q94H/R138H/R169H/T345S)", "experiment": "MHC binding assay: UV-ligand exchange with β2m ELISA", "details": "binding of HLA-class I restricted peptides to HLA-A*02:01", "text": "Candidate peptides for T cell based therapies according to the present invention were further tested for their MHC binding capacity (affinity). The individual peptide-MHC complexes were produced by UV-ligand exchange, where a UV-sensitive peptide is cleaved upon UV-irradiation, and exchanged with the peptide of interest as analyzed. Only peptide candidates that can effectively bind and stabilize the peptide-receptive MHC molecules prevent dissociation of the MHC complexes. To determine the yield of the exchange reaction, an ELISA was performed based on the detection of the light chain (β2m) of stabilized MHC complexes. The assay was performed as generally described in Rodenko et al. (Rodenko et al., 2006).\n96 well MAXISorp plates (NUNC) were coated over night with 2 ug/ml streptavidin in PBS at room temperature, washed 4× and blocked for 1 h at 37° C. in 2% BSA containing blocking buffer. Refolded HLA-A*02:01/MLA-001 monomers served as standards, covering the range of 15-500 ng/ml. Peptide-MHC monomers of the UV-exchange reaction were diluted 100-fold in blocking buffer. Samples were incubated for 1 h at 37° C., washed four times, incubated with 2 ug/ml HRP conjugated anti-β2m for 1 h at 37° C., washed again and detected with TMB solution that is stopped with […]. Absorption was measured at 450 nm. Candidate peptides that show a high exchange yield (preferably higher than 50%, most preferred higher than 75%) are generally preferred for a generation and production of antibodies or fragments thereof, and/or T cell receptors or fragments thereof, as they show sufficient avidity to the MHC molecules and prevent dissociation of the MHC complexes.", "values": [
      {"substance": "68 (KILEMDDPRA; listed as Homo sapiens) [compound 68]", "Peptide exchange (MHC class I binding score, peptide exchange yield)": "++ (>20% = ++)"},
      {"substance": "14 (RIMEGIPTV; listed as Homo sapiens) [compound 14]", "Peptide exchange (MHC class I binding score, peptide exchange yield)": "++++ (>75% = ++++)"},
      {"substance": "91 (MLFENMGAYTV; listed as Homo sapiens) [compound 91]", "Peptide exchange (MHC class I binding score, peptide exchange yield)": "++++ (>75% = ++++)"},
      {"substance": "39 (LLPEDDTRDNV; listed as Homo sapiens) [compound 39]", "Peptide exchange (MHC class I binding score, peptide exchange yield)": "+++ (>50 = +++)"},
      {"substance": "27 (YLAEPQWAV; listed as Homo sapiens) [compound 27]", "Peptide exchange (MHC class I binding score, peptide exchange yield)": "++++ (>75% = ++++)"},
      {"substance": "89 (VLDEGLTSV; listed as Homo sapiens) [compound 89]", "Peptide exchange (MHC class I binding score, peptide exchange yield)": "++++ (>75% = ++++)"},
      {"substance": "48 (YLLDYPNNL; listed as Homo sapiens) [compound 48]", "Peptide exchange (MHC class I binding score, peptide exchange yield)": "+++ (>50 = +++)"},
      {"substance": "81 (VLAENPDIFAV; listed as Homo sapiens) [compound 81]", "Peptide exchange (MHC class I binding score, peptide exchange yield)": "+++ (>50 = +++)"},
      {"substance": "25 (SLCPPGGIQEV; listed as Homo sapiens) [compound 25]", "Peptide exchange (MHC class I binding score, peptide exchange yield)": "++++ (>75% = ++++)"},
      {"substance": "57 (AILGFALSEA; listed as Homo sapiens) [compound 57]", "Peptide exchange (MHC class I binding score, peptide exchange yield)": "++++ (>75% = ++++)"},
      {"substance": "67 (AQLNLIWQL; listed as Homo sapiens) [compound 67]", "Peptide exchange (MHC class I binding score, peptide exchange yield)": "++++ (>75% = ++++)"},
      {"substance": "58 (SLSDIQPCL; listed as Homo sapiens) [compound 58]", "Peptide exchange (MHC class I binding score, peptide exchange yield)": "+++ (>50 = +++)"},
      {"substance": "32 (IQDAEGAIHEV; listed as Homo sapiens) [compound 32]", "Peptide exchange (MHC class I binding score, peptide exchange yield)": "++++ (>75% = ++++)"},
      {"substance": "77 (SLRAFLMPI; listed as Homo sapiens) [compound 77]", "Peptide exchange (MHC class I binding score, peptide exchange yield)": "++ (>20% = ++)"},
      {"substance": "31 (HLATVKLLV; listed as Homo sapiens) [compound 31]", "Peptide exchange (MHC class I binding score, peptide exchange yield)": "++++ (>75% = ++++)"},
      {"substance": "37 (ILLEDVFQL; listed as Homo sapiens) [compound 37]", "Peptide exchange (MHC class I binding score, peptide exchange yield)": "++++ (>75% = ++++)"},
      {"substance": "60 (SLGNFKDDLL; listed as Homo sapiens) [compound 60]", "Peptide exchange (MHC class I binding score, peptide exchange yield)": "+++ (>50 = +++)"},
      {"substance": "22 (KLPEPCPSTV; listed as Homo sapiens) [compound 22]", "Peptide exchange (MHC class I binding score, peptide exchange yield)": "+++ (>50 = +++)"},
      {"substance": "86 (SLQERQVFL; listed as Homo sapiens) [compound 86]", "Peptide exchange (MHC class I binding score, peptide exchange yield)": "+++ (>50 = +++)"},
      {"substance": "41 (RLNGEGVGQVNISV; listed as Homo sapiens) [compound 41]", "Peptide exchange (MHC class I binding score, peptide exchange yield)": "++ (>20% = ++)"},
      {"substance": "53 (RLVEVGGDVQL; listed as Homo sapiens) [compound 53]", "Peptide exchange (MHC class I binding score, peptide exchange yield)": "++++ (>75% = ++++)"},
      {"substance": "72 (SLDGNPLAV; listed as Homo sapiens) [compound 72]", "Peptide exchange (MHC class I binding score, peptide exchange yield)": "++++ (>75% = ++++)"},
      {"substance": "9 (STASAITPSV; listed as Homo sapiens) [compound 9]", "Peptide exchange (MHC class I binding score, peptide exchange yield)": "++ (>20% = ++)"},
      {"substance": "43 (AVLGGKLYV; listed as Homo sapiens) [compound 43]", "Peptide exchange (MHC class I binding score, peptide exchange yield)": "++++ (>75% = ++++)"},
      {"substance": "78 (VLYGDVEEL; listed as Homo sapiens) [compound 78]", "Peptide exchange (MHC class I binding score, peptide exchange yield)": "+++ (>50 = +++)"},
      {"substance": "79 (GLHQDFPSVVL; listed as Homo sapiens) [compound 79]", "Peptide exchange (MHC class I binding score, peptide exchange yield)": "+++ (>50 = +++)"},
      {"substance": "50 (ALSNVVHKV; listed as Homo sapiens) [compound 50]", "Peptide exchange (MHC class I binding score, peptide exchange yield)": "++++ (>75% = ++++)"},
      {"substance": "34 (ALDTFSVQV; listed as Homo sapiens) [compound 34]", "Peptide exchange (MHC class I binding score, peptide exchange yield)": "++++ (>75% = ++++)"},
      {"substance": "7 (ALEEANADLEV; listed as Homo sapiens) [compound 7]", "Peptide exchange (MHC class I binding score, peptide exchange yield)": "+++ (>50 = +++)"},
      {"substance": "6 (ALYDAELSQM; listed as Homo sapiens) [compound 6]", "Peptide exchange (MHC class I binding score, peptide exchange yield)": "+++ (>50 = +++)"},
      {"substance": "33 (AIYEGVGWNV; listed as Homo sapiens) [compound 33]", "Peptide exchange (MHC class I binding score, peptide exchange yield)": "++++ (>75% = ++++)"},
      {"substance": "54 (RLSGEGVGPV; listed as Homo sapiens) [compound 54]", "Peptide exchange (MHC class I binding score, peptide exchange yield)": "+++ (>50 = +++)"},
      {"substance": "84 (ALMAGCIQEA; listed as Homo sapiens) [compound 84]", "Peptide exchange (MHC class I binding score, peptide exchange yield)": "++++ (>75% = ++++)"},
      {"substance": "61 (FVAGYIAGV; listed as Homo sapiens) [compound 61]", "Peptide exchange (MHC class I binding score, peptide exchange yield)": "++++ (>75% = ++++)"},
      {"substance": "55 (VLNVGVAEV; listed as Homo sapiens) [compound 55]", "Peptide exchange (MHC class I binding score, peptide exchange yield)": "+++ (>50 = +++)"},
      {"substance": "80 (GLYGIKDDVFL; listed as Homo sapiens) [compound 80]", "Peptide exchange (MHC class I binding score, peptide exchange yield)": "++++ (>75% = ++++)"},
      {"substance": "56 (FLQLETEQV; listed as Homo sapiens) [compound 56]", "Peptide exchange (MHC class I binding score, peptide exchange yield)": "++++ (>75% = ++++)"},
      {"substance": "36 (GLWSSIFSL; listed as Homo sapiens) [compound 36]", "Peptide exchange (MHC class I binding score, peptide exchange yield)": "++++ (>75% = ++++)"},
      {"substance": "70 (FLFPAFLTA; listed as Homo sapiens) [compound 70]", "Peptide exchange (MHC class I binding score, peptide exchange yield)": "++++ (>75% = ++++)"},
      {"substance": "71 (SLFPYVVLI; listed as Homo sapiens) [compound 71]", "Peptide exchange (MHC class I binding score, peptide exchange yield)": "++++ (>75% = ++++)"},
      {"substance": "87 (ALPEPSPAA; listed as Homo sapiens) [compound 87]", "Peptide exchange (MHC class I binding score, peptide exchange yield)": "+++ (>50 = +++)"},
      {"substance": "59 (YLQNEVFGL; listed as Homo sapiens) [compound 59]", "Peptide exchange (MHC class I binding score, peptide exchange yield)": "+++ (>50 = +++)"},
      {"substance": "64 (KILESLFVSL; listed as Homo sapiens) [compound 64]", "Peptide exchange (MHC class I binding score, peptide exchange yield)": "+++ (>50 = +++)"},
      {"substance": "15 (SMLNNIINL; listed as Homo sapiens) [compound 15]", "Peptide exchange (MHC class I binding score, peptide exchange yield)": "+++ (>50 = +++)"},
      {"substance": "88 (LMAPAPSTV; listed as Homo sapiens) [compound 88]", "Peptide exchange (MHC class I binding score, peptide exchange yield)": "+++ (>50 = +++)"},
      {"substance": "90 (TLNDGVVVQV; listed as Homo sapiens) [compound 90]", "Peptide exchange (MHC class I binding score, peptide exchange yield)": "++++ (>75% = ++++)"},
      {"substance": "65 (ALWGFFPVLL; listed as Homo sapiens) [compound 65]", "Peptide exchange (MHC class I binding score, peptide exchange yield)": "++++ (>75% = ++++)"},
      {"substance": "51 (FLIPSIIFA; listed as Homo sapiens) [compound 51]", "Peptide exchange (MHC class I binding score, peptide exchange yield)": "++++ (>75% = ++++)"},
      {"substance": "83 (QLLQYVYNL; listed as Homo sapiens) [compound 83]", "Peptide exchange (MHC class I binding score, peptide exchange yield)": "++++ (>75% = ++++)"},
      {"substance": "45 (GLIEWLENTV; listed as Homo sapiens) [compound 45]", "Peptide exchange (MHC class I binding score, peptide exchange yield)": "++++ (>75% = ++++)"},
      {"substance": "76 (ILFDEVLTFA; listed as Homo sapiens) [compound 76]", "Peptide exchange (MHC class I binding score, peptide exchange yield)": "++++ (>75% = ++++)"}
    ]}
  ]
}
